Target: HCoV-229E nsp15 protein, H250A mutant (recombinant, hexameric) (human coronavirus 229E (HCoV-229E))
Experiment: […] (25 mM HEPES pH 8, 300 mM NaCl, 10% glycerol, 1 mM TCEP); […]; 20 °C; […]

“HCoV-229E nsp15 protein, H250A mutant (recombinant, hexameric) (enzyme)” was tested, and the percent hexameric was over 98% and the stoichiometry N was 6.
